Reference: publication doi:10.64898/2025.12.24.696318, “TRAF6 coiled-coil domain mediates its trimerization” (bioRxiv, 2025)

B1: His6-THROM-TRAF6-CC (human TRAF6 coiled-coil domain, residues 288-348, with N-terminal His6 tag and thrombin cleavage site) (domain or fragment, UniProt Q9Y4K3 288-348, looked up)
chain: YISEVRNFQETIHQLEGRLVRQDHQIRELTAKMETQSMYVSELKRTIRTLEDKVAEIEAQQ
notes: TRAF6, human, UniProt Q9Y4K3, coiled-coil domain, residues Y288-Q348; Cloned in pET28a between NdeI and XhoI; a thrombin cleavage site lies between the His6 tag and the domain; Printed mass of the tagged monomer is 9.61 kDa; also called His6-TRAF6-CC; hexahistidine-tagged TRAF6-CC; source: E. coli BL21-CodonPlus (DE3) RIPL, purified (Ni-NTA, SEC); not shown: His6, N-terminal, kept
B2: tagless TRAF6-CC (human TRAF6 coiled-coil domain, residues 288-348, His6 tag removed by thrombin) (domain or fragment, UniProt Q9Y4K3 288-348, looked up)
chain: B1 chain
notes: TRAF6, human, UniProt Q9Y4K3, coiled-coil domain, residues Y288-Q348; Made from m1 by bovine thrombin; source: E. coli BL21-CodonPlus (DE3) RIPL, purified (Ni-NTA, thrombin cleavage, reverse Ni-NTA, SEC); not shown: His6, N-terminal, cleaved

Biological target: the molecule itself
Assay: SEC-MALS; Superdex 200 Increase 10/300; 20 mM Tris-HCl pH 8.0, 150 mM NaCl; 0.5 mL/min; His6-TRAF6-CC at 1 and 6.57 mg/ml, tagless TRAF6-CC at 0.934 and 1.57 mg/ml; calibrated with BSA

Protein	stoichiometry N
B1	3
B2	3
